Data from patent US20100243450.

Biological target: Mef2c (UniProt Q06413)
Conditions: NECEEM; 25 mM tetraborate pH 9.4, room temperature; koff 0.022 s-1, kon 45 M-1 s-1

Chain of Mef2c (Q06413 whole entry): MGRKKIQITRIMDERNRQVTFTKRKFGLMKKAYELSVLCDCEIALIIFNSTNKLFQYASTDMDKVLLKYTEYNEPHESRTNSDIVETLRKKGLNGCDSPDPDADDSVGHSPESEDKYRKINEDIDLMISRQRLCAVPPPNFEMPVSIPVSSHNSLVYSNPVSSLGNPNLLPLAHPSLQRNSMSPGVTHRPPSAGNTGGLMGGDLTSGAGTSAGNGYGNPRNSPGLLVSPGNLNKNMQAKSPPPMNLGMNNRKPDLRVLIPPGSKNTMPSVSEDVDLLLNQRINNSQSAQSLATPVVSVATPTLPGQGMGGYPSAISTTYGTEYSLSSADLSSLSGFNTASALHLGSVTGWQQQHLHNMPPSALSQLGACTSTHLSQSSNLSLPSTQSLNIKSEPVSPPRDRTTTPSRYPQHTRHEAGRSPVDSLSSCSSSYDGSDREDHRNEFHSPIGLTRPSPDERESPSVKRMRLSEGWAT

For “CCTGCCACGCTCCGCTCTAAAAATAA (double strand) [Mef2c target dsDNA 26 bp]”, the Kd was 480 µM.
